According to publication PMC10353892:

Molecular target: barrier-to-autointegration factor (BAF) (UniProt Q9VLU0)
Experiment: GFP affinity purification, mass spectrometry
Conditions: reference: GFP-Ote wild type; sites S50,S54

otefin (Ote; emerin) (from UniProt P20240) GFP-OteAA (S50A S54A)
binding against the reference: stronger
